From patent US20250188154A1

Legend:
[1] = target: SARS-CoV-2 spike D614G on pseudovirus (VRC7480.D614G) (SARS-CoV-2) (UniProt P0DTC2); experiment: cell-based or functional assay
[2] = target: SARS-CoV-2 D614G live virus spike (SARS-CoV-2) (UniProt P0DTC2); experiment: cell-based or functional assay

DH1042 (antibody)
Pseudovirus IC50 [1]: 0.011 µg/mL
Pseudovirus IC80 [1]: 0.053 µg/mL
Pseudovirus MPI [1]: 100%
Pseudovirus neutralization IC50 [1]: 0.011 µg/mL
Pseudovirus neutralization IC80 [1]: 0.053 µg/mL
Pseudovirus neutralization MPI [1]: 100%

DH1047 (antibody)
live virus neutralization IC50 [2]: 0.059 µg/mL
Pseudovirus neutralization IC50 [1]: 0.09 µg/mL
Pseudovirus neutralization IC80 [1]: 0.36 µg/mL
Pseudovirus neutralization MPI [1]: 100%
